± gives the standard error. For part of these data: This sample holds only a part of the variants without activity.
B1: glmS ribozyme (parent)
chain: AUAAAAGCGCCAGAACUACAGAAAUGUAGUUGACGAGGAGGAGGUUUAUCGAAUUUUCGGCGGAUGCCUCCAAA

Assays:
Conditions in all cases: with glucosamine-6-phosphate
[1] = variants of: B1; test: kcat; higher = faster cleavage; RNA array
Summary of the method: (§1)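 Tiles of sequenced MiSeq chips were imaged over ~14 h at 37 °C. On them, barcoded ribozyme variants had been transcribed in situ by E. coli RNA polymerase and were tracked via a hybridised Cy3 probe while glucosamine-6-phosphate (40 μM to 10 mM) in HEPES/KCl/Mg(OAc)2 buffer flowed in. Per-tile medians, normalised to baseline and to non-cleaving reference variants, were fit to one- or two-exponential decays for kobs, and weighted Michaelis–Menten fits gave kcat and KM.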

[2] = variants of: B1; test: self-cleavage kobs at 2500 uM GlcN6P; higher = faster cleavage; RNA array
Summary of the method: as §1

[3] = variants of: B1; test: self-cleavage kobs at 160 uM GlcN6P; higher = faster cleavage; RNA array
Summary of the method: as §1

[4] = variants of: B1; test: self-cleavage kobs at 40 uM GlcN6P; higher = faster cleavage; RNA array
Summary of the method: as §1

[5] = variants of: B1; test: self-cleavage kobs at 10000 uM GlcN6P; higher = faster cleavage; RNA array
Summary of the method: as §1

[6] = variants of: B1; test: KM; higher = weaker cofactor use; RNA array
Summary of the method: as §1

[7] = variants of: B1; test: self-cleavage kobs at 640 uM GlcN6P; higher = faster cleavage; RNA array
Summary of the method: as §1

Variant	kcat [1] [s⁻¹]	self-cleavage kobs at 2500 uM GlcN6P [2] [s⁻¹]	self-cleavage kobs at 160 uM GlcN6P [3] [s⁻¹]	self-cleavage kobs at 40 uM GlcN6P [4] [s⁻¹]	self-cleavage kobs at 10000 uM GlcN6P [5] [s⁻¹]	KM [6] [µM]	self-cleavage kobs at 640 uM GlcN6P [7] [s⁻¹]
A15C C68G	2.69e-05 ± 6.5e-06	3.22e-05 ± 9e-06					
C11A G37U	1.35e-05 ± 3.5e-06		< 1e-05				
A14C G44U	4.6e-05 ± 8.4e-06	3.7e-05 ± 1.4e-05		< 1e-05	3.91e-05 ± 9.8e-06		
A36U G38U	< 1e-05				< 1e-05		
U47C A48U	0.000264 ± 3.4e-05	0.000174 ± 3.2e-05				1270 ± 340	9.41e-05 ± 2.5e-05
C11A U49A	< 1e-05	< 1e-05					< 1e-05
U31C U47A U56C	0.00113 ± 0.00024	0.000487 ± 0.00011			0.000707 ± 0.00012	5360 ± 1700	0.000111 ± 2.5e-05
U30C U55G	0.00036 ± 1.6e-05	0.000236 ± 4.5e-05			0.000307 ± 5.8e-05	1480 ± 160	0.000105 ± 2.8e-05
C10U U54A	4.72e-05 ± 5.3e-06	4.32e-05 ± 2.1e-05	< 1e-05	< 1e-05	4.37e-05 ± 9.7e-06		
G13C U47G	3.48e-05 ± 2.1e-06			< 1e-05	3.53e-05 ± 8.5e-06		
C58U C67U	2.38e-05 ± 3.4e-06	2.92e-05 ± 8e-06			2.01e-05 ± 6.4e-06		
U57G C58G	3.94e-05 ± 1.6e-05	5.55e-05 ± 2e-05					7.15e-05 ± 2.3e-05
A64G C67A	0.00338 ± 0.00073	0.0018 ± 0.00034	0.000303 ± 4.4e-05	9.53e-05 ± 1.7e-05	0.00346 ± 0.00059	1730 ± 520	0.000794 ± 0.00012
G7C G37C	< 1e-05	< 1e-05		< 1e-05	< 1e-05		
C11G A12G	< 1e-05		< 1e-05	< 1e-05	< 1e-05	16.2 ± 6.9	
C68U U69C	8.69e-05 ± 6.8e-06	3.88e-05 ± 1.4e-05			6.79e-05 ± 1.1e-05	2850 ± 730	
U55A	0.0533 ± 0.012	0.025 ± 0.0015	0.0039 ± 0.00028	0.00134 ± 4.9e-05	0.0555 ± 0.0025	1770 ± 530	0.0133 ± 0.00067
C68U U69G	2.33e-05 ± 5.5e-06	3.45e-05 ± 1.6e-05					

Variant	kcat [1] [s⁻¹]	self-cleavage kobs at 2500 uM GlcN6P [2] [s⁻¹]	self-cleavage kobs at 160 uM GlcN6P [3] [s⁻¹]	self-cleavage kobs at 40 uM GlcN6P [4] [s⁻¹]	self-cleavage kobs at 10000 uM GlcN6P [5] [s⁻¹]	KM [6] [µM]	self-cleavage kobs at 640 uM GlcN6P [7] [s⁻¹]
U45G U55C	0.00551 ± 0.00089	0.00273 ± 0.00035	0.000297 ± 5.2e-05	0.000129 ± 2.6e-05	0.00455 ± 0.00058	2350 ± 590	0.00131 ± 0.0002
A14U A39C	0.00121 ± 0.00019	0.000537 ± 8.2e-05	7.69e-05 ± 1.2e-05	2.83e-05 ± 7.2e-06	0.000981 ± 9.1e-05	2790 ± 700	0.000203 ± 2.4e-05
A6G C50G C68U	0.000115 ± 2.9e-05	0.000173 ± 4.6e-05	9.16e-05 ± 2.3e-05	5.04e-05 ± 2.1e-05	7.92e-05 ± 2.5e-05		0.000189 ± 4.8e-05
A15C C71G	0.000307 ± 5.8e-05	0.000299 ± 3.9e-05	4.96e-05 ± 1.3e-05		0.00025 ± 3.6e-05	1010 ± 390	0.00011 ± 1.2e-05
U54A U56G	0.0107 ± 0.0029	0.00548 ± 0.00089	0.000857 ± 0.00017	0.000226 ± 4.9e-05	0.0131 ± 0.0038	1740 ± 650	0.00363 ± 0.00057
U45A G66U	0.00194 ± 0.00019	0.00104 ± 0.00022	0.000117 ± 3.4e-05	4.15e-05 ± 1.3e-05	0.0016 ± 0.00026	2090 ± 330	0.000508 ± 0.0001
A12G C16U	0.00221 ± 0.00096	0.00036 ± 4.1e-05	4.12e-05 ± 9.2e-06		0.00119 ± 0.0001		0.000179 ± 2.1e-05
C10U G29C	1.05e-05 ± 2.4e-06						
G41C U45G G66C	4.62e-05 ± 1e-05				2.84e-05 ± 1.2e-05		
C50G G63C	2.84e-05 ± 1.1e-05		3.67e-05 ± 1.6e-05				
A12G A42U A53C	< 1e-05			< 1e-05			
G60A C70G	1.99e-05 ± 7.1e-06						
G38C G66U	< 1e-05		< 1e-05		< 1e-05		
U55C U65C	0.000217 ± 5e-05	0.00011 ± 1.9e-05			0.000217 ± 3.1e-05		7.31e-05 ± 1.1e-05
G29U G32C	0.000123 ± 3.9e-06	5.78e-05 ± 8.5e-06		< 1e-05	9.71e-05 ± 8.4e-06	2730 ± 250	
C11U C50G C58A	0.000158 ± 1.6e-05	0.000242 ± 0.00011	0.00015 ± 1.7e-05	0.000112 ± 3.6e-05	0.000135 ± 2.2e-05		0.000189 ± 3e-05
C16A U54G	0.00103 ± 0.0004	0.000532 ± 9.9e-05	9.7e-05 ± 1.9e-05	4.66e-05 ± 1e-05	0.00141 ± 0.00027		0.00029 ± 4.8e-05

From the supplement of paper PMC7125110
